Experimental findings from US20220242906A1 are described below.

The experiment concerns the target elongation initiation factor 4E (eIF4E), P06730. The experiment can be described thus: SPR (Biacore T100), eIF4E immobilised on CM5 chip, peptide as analyte. Particulars: remark: other sources report otherwise.

Chain of elongation initiation factor 4E (eIF4E), P06730 (P06730 2-217 limits assumed): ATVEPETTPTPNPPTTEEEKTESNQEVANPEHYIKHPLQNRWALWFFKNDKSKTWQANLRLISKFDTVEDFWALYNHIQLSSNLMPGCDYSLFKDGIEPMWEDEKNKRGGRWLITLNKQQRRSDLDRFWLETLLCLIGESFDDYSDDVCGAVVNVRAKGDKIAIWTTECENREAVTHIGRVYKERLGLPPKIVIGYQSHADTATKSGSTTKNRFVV

B1: EE-2A (peptide)
peptide: ACAMGFFQDCG
HELM: PEPTIDE1{A.C.A.M.G.F.F.Q.D.C.G.[am]}$PEPTIDE1,PEPTIDE1,2:R3-10:R3$$$V2.0
SMILES: CSCC[C@@H]1NC(=O)[C@H](C)NC(=O)[C@@H](NC(=O)[C@H](C)N)CSSC[C@@H](C(=O)NCC(N)=O)NC(=O)[C@H](CC(=O)O)NC(=O)[C@H](CCC(N)=O)NC(=O)[C@H](Cc2ccccc2)NC(=O)[C@H](Cc2ccccc2)NC(=O)CNC1=O
B1 showed a dissociation constant (Kd) of 11 µM.

B2: EE-2C (peptide)
peptide: ACEMAFFQDCG
HELM: PEPTIDE1{A.C.E.M.A.F.F.Q.D.C.G.[am]}$PEPTIDE1,PEPTIDE1,2:R3-10:R3$$$V2.0
SMILES: CSCC[C@@H]1NC(=O)[C@H](CCC(=O)O)NC(=O)[C@@H](NC(=O)[C@H](C)N)CSSC[C@@H](C(=O)NCC(N)=O)NC(=O)[C@H](CC(=O)O)NC(=O)[C@H](CCC(N)=O)NC(=O)[C@H](Cc2ccccc2)NC(=O)[C@H](Cc2ccccc2)NC(=O)[C@H](C)NC1=O
With B2, the dissociation constant Kd worked out at 32 µM.
